Measurements taken from US20210388108A1 (GLYCARDIAL DIAGNOSTICS S L, published 2021).
No end group written: not given here. *: point of attachment. Biotin = O=C1N[C@H]2[C@H](CS[C@H]2CCCCC(=O)*)N1; GlcNAc = N-acetylglucosamine

B1: Ag1G-11 (antibody, V domains shown)
VH: QSLEESGGRLVTPGGSLTLTCTVSGFSLSSYAMSWVRQAPGKGLEWIGIIGVNGDTYYASWAKGRFTISKTSTTVGLKITSPTTEDTATYFCARVRYPYYDTDAFDPWGPGTLVTISS
VL: DPVLTQTPSPVSAAVGGTVTINCQASQSVYNNNELSWYQQKPGQPPKPLIYQASKLASGVPSRFKGSGSGTQFTLTISDLECDDAATYYCQGIYLGSDWYDVFGGGTEVVVKR
notes: Rabbit/human chimeric clone from a Fab phage library; tested 'in the form of IgG'; the FWR4 entries as printed run on into human C kappa (light) and human CH1 plus His tag (heavy), i.e. the Fab format; also called Apo J-GlcNAc Ag1G-11
B2: Ag4G-6 (antibody, V domains shown)
VH: QQLEESGGRLVTPGTPLTLTCTASGMDLSKYWMTWVRQAPGKGLEYIGIIETGGSAYYASWAKGRFTISRTSTTVDLKMISPTTEDTATYFCGRWGDIWGPGTLVTVSS
VL: MTQTPASVEVAVGGTVTIKCQASQSINGYLAWYQQKPGQPPKLLIYQASTLASGVSSRFQGSGSGTEYTLTISGVQCDDAATYYCQGDYYGWIRTFGGGTEVVVKR
notes: Rabbit/human chimeric clone from a Fab phage library; tested 'in the form of IgG'; the FWR4 entries as printed run on into human C kappa (light) and human CH1 plus His tag (heavy), i.e. the Fab format; also called Apo J-GlcNAc Ag4G-6

Legend:
[1] = molecular target: T1, Ag1G (Bio-REIRHN(GlcNAc)STGC); assay: QC ELISA of the IgG on its target peptide
T1 peptide: Biotin-REIRHN(GlcNAc)STGC

[2] = molecular target: T2, Ag4G (Bio-EEFLN(GlcNAc)QSSP); assay: QC ELISA of the IgG on its target peptide
T2 peptide: Biotin-EEFLN(GlcNAc)QSSP

Binder	binding result [1]	binding result [2]
B1	binds	–
B2	–	binds
